The record followed here is PMC5935067.

The target in this test is microtubules polymerised from bovine brain tubulin (bovine), Q6B856. The test can be described thus: TIRF microscopy, single-molecule dwell-time analysis.

B1: His-CLASP2γ-eGFP-StrepII (full-length human CLASP2γ with C-terminal eGFP) (natural protein)
chain: MAMGDDKSFDDEESVDGNRPSSAASAFKVPAPKTSGNPANSARKPGSAGGPKVGGASKEGGAGAVDEDDFIKAFTDVPSIQIYSSRELEETLNKIREILSDDKHDWDQRANALKKIRSLLVAGAAQYDCFFQHLRLLDGALKLSAKDLRSQVVREACITVAHLSTVLGNKFDHGAEAIVPTLFNLVPNSAKVMATSGCAAIRFIIRHTHVPRLIPLITSNCTSKSVPVRRRSFEFLDLLLQEWQTHSLERHAAVLVETIKKGIHDADAEARVEARKTYMGLRNHFPGEAETLYNSLEPSYQKSLQTYLKSSGSVASLPQSDRSSSSSQESLNRPFSSKWSTANPSTVAGRVSAGSSKASSLPGSLQRSRSDIDVNAAAGAKAHHAAGQSVRSGRLGAGALNAGSYASLEDTSDKLDGTASEDGRVRAKLSAPLAGMGNAKADSRGRSRTKMVSQSQPGSRSGSPGRVLTTTALSTVSSGVQRVLVNSASAQKRSKIPRSQGCSREASPSRLSVARSSRIPRPSVSQGCSREASRESSRDTSPVRSFQPLASRHHSRSTGALYAPEVYGASGPGYGISQSSRLSSSVSAMRVLNTGSDVEEAVADALKKPARRRYESYGMHSDDDANSDASSACSERSYSSRNGSIPTYMRQTEDVAEVLNRCASSNWSERKEGLLGLQNLLKNQRTLSRVELKRLCEIFTRMFADPHGKRVFSMFLETLVDFIQVHKDDLQDWLFVLLTQLLKKMGADLLGSVQAKVQKALDVTRESFPNDLQFNILMRFTVDQTQTPSLKVKVAILKYIETLAKQMDPGDFINSSETRLAVSRVITWTTEPKSSDVRKAAQSVLISLFELNTPEFTMLLGALPKTFQDGATKLLHNHLRNTGNGTQSSMGSPLTRPTPRSPANWSSPLTSPTNTSQNTLSPSAFDYDTENMNSEDIYSSLRGVTEAIQNFSFRSQEDMNEPLKRDSKKDDGDSMCGGPGMSDPRAGGDATDSSQTALDNKASLLHSMPTHSSPRSRDYNPYNYSDSISPFNKSALKEAMFDDDADQFPDDLSLDHSDLVAELLKELSNHNERVEERKIALYELMKLTQEESFSVWDEHFKTILLLLLETLGDKEPTIRALALKVLREILRHQPARFKNYAELTVMKTLEAHKDPHKEVVRSAEEAASVLATSISPEQCIKVLCPIIQTADYPINLAAIKMQTKVIERVSKETLNLLLPEIMPGLIQGYDNSESSVRKACVFCLVAVHAVIGDELKPHLSQLTGSKMKLLNLYIKRAQTGSGGADPTTDVSGQS
modifications: not checked
In turn, B1 gave a dwell time at growing microtubule tips, with 10 nM EB1 of 1.8 s; a dwell time of lattice-binding events, with 10 nM EB1 of 0.74 s; a mean dwell time on microtubule tips, without EB1 of 0.67 s; a mean dwell time on the microtubule lattice, without EB1 of 0.49 s. In addition, the tip association rate, with 10 nM EB1 came to 5.3e+08 M⁻¹ s⁻¹ and the tip association rate, without EB1 is 2.9e+08 M⁻¹ s⁻¹.
